pKd: −log10 of the molar value.
Biological target: c-met receptor tyrosine kinase (native, on MM cell surface) (Homo sapiens) (UniProt P08581)
Test: flow cytometry cell binding
Conditions: MM.1S cells; library signal subtracted; 5 mM MgCl2; 1x PBS, 4.5 g/L glucose, 5 mM MgCl2, 0.1 mg/mL yeast tRNA, 1 mg/mL BSA, 4 C, 30 min; 3e5 cells in 200 uL; pH not stated

Sequence of c-met receptor tyrosine kinase (native, on MM cell surface) (Homo sapiens) (P08581 25-1390): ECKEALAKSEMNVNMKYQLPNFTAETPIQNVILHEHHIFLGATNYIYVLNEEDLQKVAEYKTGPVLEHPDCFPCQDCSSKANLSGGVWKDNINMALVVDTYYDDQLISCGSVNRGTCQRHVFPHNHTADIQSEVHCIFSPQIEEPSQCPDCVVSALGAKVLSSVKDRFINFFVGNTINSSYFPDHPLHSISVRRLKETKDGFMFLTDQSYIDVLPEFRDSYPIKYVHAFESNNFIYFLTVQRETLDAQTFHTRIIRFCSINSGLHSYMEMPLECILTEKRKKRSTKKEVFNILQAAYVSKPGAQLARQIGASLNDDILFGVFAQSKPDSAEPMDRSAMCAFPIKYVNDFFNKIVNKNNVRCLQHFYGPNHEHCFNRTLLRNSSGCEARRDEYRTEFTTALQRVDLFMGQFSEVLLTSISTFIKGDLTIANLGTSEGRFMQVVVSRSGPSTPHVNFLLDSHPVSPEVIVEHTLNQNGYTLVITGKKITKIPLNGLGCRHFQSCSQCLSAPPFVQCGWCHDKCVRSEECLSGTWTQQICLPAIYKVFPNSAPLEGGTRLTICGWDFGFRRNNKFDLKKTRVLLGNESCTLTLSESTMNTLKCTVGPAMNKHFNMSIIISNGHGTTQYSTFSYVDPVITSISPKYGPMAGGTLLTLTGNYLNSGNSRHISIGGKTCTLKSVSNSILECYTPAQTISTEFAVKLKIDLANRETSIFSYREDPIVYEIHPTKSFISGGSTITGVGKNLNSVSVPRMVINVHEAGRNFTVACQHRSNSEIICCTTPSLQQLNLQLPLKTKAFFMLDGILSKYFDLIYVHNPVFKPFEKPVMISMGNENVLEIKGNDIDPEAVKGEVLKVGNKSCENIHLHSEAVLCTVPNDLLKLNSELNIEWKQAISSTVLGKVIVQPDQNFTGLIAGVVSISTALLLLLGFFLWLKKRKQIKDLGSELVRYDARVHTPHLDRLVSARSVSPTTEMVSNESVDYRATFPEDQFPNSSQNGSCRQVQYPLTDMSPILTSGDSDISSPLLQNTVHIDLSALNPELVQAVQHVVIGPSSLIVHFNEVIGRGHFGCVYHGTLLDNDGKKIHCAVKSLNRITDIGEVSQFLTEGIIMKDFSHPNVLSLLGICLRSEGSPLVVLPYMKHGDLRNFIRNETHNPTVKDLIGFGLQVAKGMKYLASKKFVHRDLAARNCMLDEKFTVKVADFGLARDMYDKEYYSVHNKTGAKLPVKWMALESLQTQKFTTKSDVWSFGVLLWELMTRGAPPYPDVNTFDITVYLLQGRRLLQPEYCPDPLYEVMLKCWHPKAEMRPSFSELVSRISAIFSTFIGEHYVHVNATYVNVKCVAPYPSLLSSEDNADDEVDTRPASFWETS

ATCAGGCTGGATGGTAGCTCGGTCGGGGTGGGTGGGTTGGCAAGTCTGAT [SL1]
pKd: 6.87

— PMC6237600
